# Experimental data as given in patent publication US20220090012A1 (CRISPR THERAPEUTICS, published 2022).
# T1: recombinant biotinylated human BCMA (human, UniProt Q02223 1-54, biotinylated (site not stated); detected with streptavidin-APC)
# T1 construct: Staining reagent; also called recombinant biotinylated BCMA/streptavidin-APC conjugate
# T1 sequence (looked up): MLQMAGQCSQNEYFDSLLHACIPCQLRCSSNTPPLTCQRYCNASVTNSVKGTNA
# B1: anti-BCMA CAR (BCMA CAR amino acid sequence) (other)
# chain: QVQLVQSGAELKKPGASVKVSCKASGNTLTNYVIHWVRQAPGQRLEWMGYILPYNDLTKYSQKFQGRVTITRDKSASTAYMELSSLRSEDTAVYYCTRWDWDGFFDPWGQGTTVTVSSGGGGSGGGGSGGGGSEIVMTQSPATLSVSPGERASISCRASQSLVHSNGNTHLHWYQQRPGQAPRLLIYSVSNRFSEVPARFSGSGSGTDFTLTISSVESEDFAVYYCSQTSHIPYTFGGGTKLEIKSAAAFVPVFLPAKPTTTPAPRPPTPAPTIASQPLSLRPEACRPAAGGAVHTRGLDFACDIYIWAPLAGTCGVLLLSLVITLYCNHRNRKRGRKKLLYIFKQPFMRPVQTTQEEDGCSCRFPEEEEGGCELRVKFSRSADAPAYQQGQNQLYNELNLGRREEYDVLDKRRGRDPEMGGKPRRKNPQEGLYNELQKDKMAEAYSEIGMKGERRRGKGHDGLYQGLSTATKDTYDALHMQALPPR
# notes: also called anti-BCMA chimeric antigen receptor
# Molecular target: T1, recombinant biotinylated human BCMA
# Assay: flow cytometry; edited T cells carrying the CAR stained with recombinant biotinylated human BCMA and streptavidin-APC
# Excerpt: Flowcytometry was used to verify the editing for TRAC, β2M and the insertion and expression of anti-BCMA CAR. Briefly, about one week post electroporation, cells were stained with anti-human TCR, anti-human β2M and recombinant biotinylated human BCMA/streptavidin-APC to assess the levels of editing for TRAC and β2M, and insertion of the nucleotide sequence encoding anti-BCMA CAR.
# TRAC−/β2M−, TRAC−/β2M−/Reg-1−, TRAC−/β2M−/TGFBRII− and TRAC−/β2M−/Reg-1−/TGFBRII− anti-BCMA CAR+ T-cells show consistent rates of TCR and β2M disruptions at >90% and >60% rates, respectively as determined by flow cytometry (FIGS. 23A and 23B). Anti-BCMA CAR expression was measured flow cytometrically by determining the percentage of cells that bound recombinant biotinylated BCMA/streptavidin-APC conjugate. All the conditions including TRAC−/β2M−, TRAC−/β2M−/Reg-1−, TRAC−/β2M−/TGFBRII− and TRAC−/β2M−/Reg-1−/TGFBRII− anti-BCMA CAR+ T-cells show consistent rates of CAR insertion (>70%), while the unedited RNP− T-cells have no detectable staining for anti-BCMA CAR (FIG. 23C).
binder,measurement,value
B1,binding result,binds
